Laboratory results reported in patent US20240262917A1, “ANTIBODIES AGAINST ALK AND METHODS OF USE THEREOF” (Dana-Farber Cancer Institute, Inc., priority 2021, published 2024).

Assays:
ALK [1] = test: Western blot analysis of ALK in cell lysates and conditioned media; type: binding, human
Text: (§1) (A) Western blot analysis of ALK in Kelly and SHEP neuroblastoma cells overexpressing GFP and mutated ALK using the mAb-7 and 8G7 anti-ALK antibodies. The mAb-7 antibody was developed at the Vigny laboratory (INSERM, Unité 706/Université Pierre et Marie Curie, Paris F-75005, France) (Moog-Lutz et al, 2005; PMID: 15886198) and obtained through a Materials Transfer Agreement. (B) Western blot analysis of ALK expression in various non-neuroblastoma cell lines: H1373 (human […]), HeLa (cervical cancer), NIH-3T3 (transformed mouse fibroblast cells) using 8G7 and C26G7 (rabbit monoclonal C-terminal anti-ALK antibody; Cell Signaling Technology; Cat #3333; RRID:AB_836862) anti-ALK antibodies.
(§2) The three HPLC-purified monoclonal antibodies (5H3, 7F7 and 8G7) all of the IgG1 subtype, were tested for their ability to bind to ALK in neuroblastoma cells expressing ALK. Both cell lysates and supernatants from cells grown with and without serum (to increase the expression of ALK) were tested by western blotting. […] (A) Western blot analysis of the indicated hybridoma clones in neuroblastoma cell lines expressing WT (NGP) and mutated (SHSY5Y, Kelly) ALK. NIH3T3 cells were used as controls. (B) Western blot analysis of conditioned media from NGP neuroblastoma and 293T cells engineered to express the WT ALK receptor, with the three ALK mAbs showing binding with the shed ALK extracellular domain. […]
Cell lysates were prepared in NP-40 buffer (Invitrogen) containing complete protease inhibitor (Roche), phosphatase inhibitor (Roche) and phenylmethylsulfonyl fluoride (PMSF). Lysates were incubated on ice for 20 min and centrifuged at 16,000 g for 15 min at 4° C. Protein concentrations of the supernatants were determined with the DC protein assay kit (Bio-Rad). Protein samples were denatured using NuPAGE LDS sample buffer (Invitrogen) and NuPAGE sample reducing agent (Invitrogen). Proteins were then separated on precast 4-12% Bis-Tris gels (Invitrogen) and transferred to nitrocellulose membranes (Bio-Rad). […]

full-length ALK receptor = molecular target: T1, full-length ALK receptor (Homo sapiens, UniProt Q9UM73); test: Immunoprecipitation of ALK from neuroblastoma cell lysates; type: binding; conditions: immunoblotting with commercial anti-ALK C-terminal antibody
T1 construct: endogenous in cells
Text: Cell lysates from the indicated neuroblastoma cell lines were subjected to immunoprecipitation (IP) using 8G7 and subsequently to immunoblotting analysis using the commercial anti-ALK C-terminal antibody.

[2] = molecular target: T2, ALK extracellular fragment (Homo sapiens, UniProt Q9UM73); test: Sandwich ELISA of shed ALK ECD in patient sera; type: binding; conditions: sera of patients with ALK-expressing neuroblastoma
T2 construct: conditioned media containing the shed ALK (ALK 1-654) ECD fragment; from tissue; host or cells: serum of neuroblastoma patients
Text: Detection of the purified ALK-ECD protein using 8G7 (detection) and 7F7 (capture) anti-ALK antibodies by sandwich ELISA. (A) Standard curve showing the gradual increase in signal with increasing concentrations of the ALK-ECD protein in the media of NGP cells that express cleaved ALK. Quantification is shown below. (B) ELISA of the shed ALK ECD protein in sera from patients with neuroblastoma. Ample diluent buffer was used to dilute the serum samples, Media represents Dulbecco's Modified Eagle media in which human embryonic kidney 293T cells were grown, 293T media, conditioned media from 293T cells; ALK ECD 293T media, media collected from 293T cells in which the ALK-ECD-mFc protein was overexpressed.
We developed a sandwich ELISA technique where two ALK antibodies (for example, 5H3 or 7F7) can be used to capture the ALK extracellular fragment (antigen), and another antibody, such as the 8G7 antibody, can be used to detect the captured ALK extracellular fragment-5H3 or 7F7 complex. The different epitope binding sites of these antibodies on the ALK extracellular fragment protein allow for the development of the sandwich ELISA technique for the detection of the cleaved or shed ALK extracellular fragment in patient serum samples (FIG. 18). […]

ALK [3] = molecular target: T3, ALK (Homo sapiens, UniProt Q9UM73); test: Western blot analysis of ALK in cell lysates and conditioned media; type: binding; parameters: endogenous in cells; host or cells: human neuroblastoma lines (NGP, SH-SY5Y, Kelly and others)
Text: as §1, §2
Cell lysates were prepared in NP-40 buffer (Invitrogen) containing complete protease inhibitor (Roche), phosphatase inhibitor (Roche) and phenylmethylsulfonyl fluoride (PMSF). Lysates were incubated on ice for 20 min and centrifuged at 16,000 g for 15 min at 4° C. Protein concentrations of the supernatants were determined with the DC protein assay kit (Bio-Rad). Protein samples were denatured using NuPAGE LDS sample buffer (Invitrogen) and NuPAGE sample reducing agent (Invitrogen). Proteins were then separated on precast 4-12% Bis-Tris gels (Invitrogen) and transferred to nitrocellulose membranes (Bio-Rad). After blocking in blocking buffer (5% dry milk in TBS with 0.2% Tween-20), membranes were incubated with the primary antibody overnight at 4 °C, washed three times with TBST buffer, chemiluminescent detection performed with the appropriate secondary antibodies and developed using Genemate Blue ultra-autoradiography film (VWR).

ALK [4] = molecular target: T3, ALK; test: Screening and subcloning of hybridomas (ELISA, FCM, functional assays); type: binding; parameters: The human ALK extracellular domain (19-682 aa) fused to the mouse Fc gene; made in house; host or cells: 293T cells; conditions: after subcloning by limiting dilution
Procedure: HAT-selected fused cells were distributed in 96 well plates and the hybridoma supernatants were subjected to several rounds of screening. Initial screening was performed using ELISA against human Fc to test antigen binding with the ALK ECD-human Fc fusion protein. […] These were rescreened by FACS against Ba/F3 and neuroblastoma (NB) cells expressing ALK. From this screen, 22 positive hybridoma supernatants were tested in an antigen-binding capture ELISA assay and 11 were subsequently selected for further analysis. (A) Binding of hybridoma supernatants using an antigen-binding capture assay. The plate was coated with goat-anti-mouse IgG Fc, incubated with hybridoma supernatants, followed by ALK-HRP and visualized using an HRP substrate. (B) Binding of selected hybridoma supernatants to a human Fc antibody using ELISA screening. Plates were coated with the ALK ECD-human Fc fusion protein (ALK-hFc) together with an irrelevant hFc protein and visualized using an anti-mouse kappa light chain antibody. Only the supernatants with the highest binding are shown.
Supernatants from individual clones were then screened by ELISA and FACS analysis for ALK binding. Shown here is the viability of NGP neuroblastoma cells (expressing ALK) in the presence of anti-mouse IgG antibody in hybridoma clone supernatants. […]
Target sequence in this assay (Q9UM73 19-682): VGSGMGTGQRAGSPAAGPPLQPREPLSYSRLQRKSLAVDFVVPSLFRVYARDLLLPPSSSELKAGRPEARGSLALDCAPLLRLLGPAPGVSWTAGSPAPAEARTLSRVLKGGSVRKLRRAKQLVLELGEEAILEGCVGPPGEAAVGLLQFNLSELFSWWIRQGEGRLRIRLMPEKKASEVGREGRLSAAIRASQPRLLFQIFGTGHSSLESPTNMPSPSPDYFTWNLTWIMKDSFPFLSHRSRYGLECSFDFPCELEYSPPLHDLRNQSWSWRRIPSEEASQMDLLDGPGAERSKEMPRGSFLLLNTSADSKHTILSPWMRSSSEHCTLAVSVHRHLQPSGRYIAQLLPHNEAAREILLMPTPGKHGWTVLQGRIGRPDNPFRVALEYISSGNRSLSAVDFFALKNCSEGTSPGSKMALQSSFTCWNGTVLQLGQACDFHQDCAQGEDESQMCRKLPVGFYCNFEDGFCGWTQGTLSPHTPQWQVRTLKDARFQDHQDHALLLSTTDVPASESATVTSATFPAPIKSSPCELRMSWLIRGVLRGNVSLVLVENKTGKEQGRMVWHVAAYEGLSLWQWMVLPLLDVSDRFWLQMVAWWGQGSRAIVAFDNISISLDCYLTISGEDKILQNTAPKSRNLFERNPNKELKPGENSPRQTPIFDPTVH

MMP-9 = MMP-9 (Homo sapiens, UniProt P14780); conditions: cited from earlier work
Chain of MMP-9 (P14780 94-707): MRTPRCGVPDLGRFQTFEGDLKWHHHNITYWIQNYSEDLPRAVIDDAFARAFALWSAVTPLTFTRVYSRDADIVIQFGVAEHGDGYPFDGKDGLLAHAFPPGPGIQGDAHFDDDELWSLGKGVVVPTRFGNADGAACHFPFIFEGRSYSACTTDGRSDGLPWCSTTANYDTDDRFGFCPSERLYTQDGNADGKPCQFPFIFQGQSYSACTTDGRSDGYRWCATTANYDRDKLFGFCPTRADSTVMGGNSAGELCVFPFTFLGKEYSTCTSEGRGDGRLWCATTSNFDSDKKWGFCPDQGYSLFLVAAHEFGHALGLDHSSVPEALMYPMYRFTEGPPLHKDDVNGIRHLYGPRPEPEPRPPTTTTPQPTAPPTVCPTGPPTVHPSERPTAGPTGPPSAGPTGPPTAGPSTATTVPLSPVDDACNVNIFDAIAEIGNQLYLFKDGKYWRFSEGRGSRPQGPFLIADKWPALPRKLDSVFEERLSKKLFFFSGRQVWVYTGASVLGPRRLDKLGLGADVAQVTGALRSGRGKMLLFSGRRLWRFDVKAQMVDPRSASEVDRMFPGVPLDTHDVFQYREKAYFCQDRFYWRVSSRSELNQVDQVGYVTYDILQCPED

T2 sequence (Q9UM73 19-654): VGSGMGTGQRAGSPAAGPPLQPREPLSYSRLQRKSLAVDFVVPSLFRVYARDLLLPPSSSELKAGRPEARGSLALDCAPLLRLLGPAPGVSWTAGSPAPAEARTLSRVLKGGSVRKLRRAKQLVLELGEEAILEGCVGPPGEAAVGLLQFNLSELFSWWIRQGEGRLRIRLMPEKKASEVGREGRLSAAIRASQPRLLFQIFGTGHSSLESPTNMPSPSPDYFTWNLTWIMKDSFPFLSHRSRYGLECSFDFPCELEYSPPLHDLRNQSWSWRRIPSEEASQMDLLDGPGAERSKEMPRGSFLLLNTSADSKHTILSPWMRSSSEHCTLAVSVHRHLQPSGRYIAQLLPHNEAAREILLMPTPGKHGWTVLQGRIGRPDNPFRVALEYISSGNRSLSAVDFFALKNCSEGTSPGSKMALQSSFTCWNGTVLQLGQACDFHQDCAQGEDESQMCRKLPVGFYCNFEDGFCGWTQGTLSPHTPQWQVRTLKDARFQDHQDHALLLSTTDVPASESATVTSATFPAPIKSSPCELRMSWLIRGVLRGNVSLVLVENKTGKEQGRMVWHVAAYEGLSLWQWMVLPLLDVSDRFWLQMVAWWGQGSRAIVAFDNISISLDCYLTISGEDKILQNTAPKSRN
T1 sequence (Q9UM73 19-1620): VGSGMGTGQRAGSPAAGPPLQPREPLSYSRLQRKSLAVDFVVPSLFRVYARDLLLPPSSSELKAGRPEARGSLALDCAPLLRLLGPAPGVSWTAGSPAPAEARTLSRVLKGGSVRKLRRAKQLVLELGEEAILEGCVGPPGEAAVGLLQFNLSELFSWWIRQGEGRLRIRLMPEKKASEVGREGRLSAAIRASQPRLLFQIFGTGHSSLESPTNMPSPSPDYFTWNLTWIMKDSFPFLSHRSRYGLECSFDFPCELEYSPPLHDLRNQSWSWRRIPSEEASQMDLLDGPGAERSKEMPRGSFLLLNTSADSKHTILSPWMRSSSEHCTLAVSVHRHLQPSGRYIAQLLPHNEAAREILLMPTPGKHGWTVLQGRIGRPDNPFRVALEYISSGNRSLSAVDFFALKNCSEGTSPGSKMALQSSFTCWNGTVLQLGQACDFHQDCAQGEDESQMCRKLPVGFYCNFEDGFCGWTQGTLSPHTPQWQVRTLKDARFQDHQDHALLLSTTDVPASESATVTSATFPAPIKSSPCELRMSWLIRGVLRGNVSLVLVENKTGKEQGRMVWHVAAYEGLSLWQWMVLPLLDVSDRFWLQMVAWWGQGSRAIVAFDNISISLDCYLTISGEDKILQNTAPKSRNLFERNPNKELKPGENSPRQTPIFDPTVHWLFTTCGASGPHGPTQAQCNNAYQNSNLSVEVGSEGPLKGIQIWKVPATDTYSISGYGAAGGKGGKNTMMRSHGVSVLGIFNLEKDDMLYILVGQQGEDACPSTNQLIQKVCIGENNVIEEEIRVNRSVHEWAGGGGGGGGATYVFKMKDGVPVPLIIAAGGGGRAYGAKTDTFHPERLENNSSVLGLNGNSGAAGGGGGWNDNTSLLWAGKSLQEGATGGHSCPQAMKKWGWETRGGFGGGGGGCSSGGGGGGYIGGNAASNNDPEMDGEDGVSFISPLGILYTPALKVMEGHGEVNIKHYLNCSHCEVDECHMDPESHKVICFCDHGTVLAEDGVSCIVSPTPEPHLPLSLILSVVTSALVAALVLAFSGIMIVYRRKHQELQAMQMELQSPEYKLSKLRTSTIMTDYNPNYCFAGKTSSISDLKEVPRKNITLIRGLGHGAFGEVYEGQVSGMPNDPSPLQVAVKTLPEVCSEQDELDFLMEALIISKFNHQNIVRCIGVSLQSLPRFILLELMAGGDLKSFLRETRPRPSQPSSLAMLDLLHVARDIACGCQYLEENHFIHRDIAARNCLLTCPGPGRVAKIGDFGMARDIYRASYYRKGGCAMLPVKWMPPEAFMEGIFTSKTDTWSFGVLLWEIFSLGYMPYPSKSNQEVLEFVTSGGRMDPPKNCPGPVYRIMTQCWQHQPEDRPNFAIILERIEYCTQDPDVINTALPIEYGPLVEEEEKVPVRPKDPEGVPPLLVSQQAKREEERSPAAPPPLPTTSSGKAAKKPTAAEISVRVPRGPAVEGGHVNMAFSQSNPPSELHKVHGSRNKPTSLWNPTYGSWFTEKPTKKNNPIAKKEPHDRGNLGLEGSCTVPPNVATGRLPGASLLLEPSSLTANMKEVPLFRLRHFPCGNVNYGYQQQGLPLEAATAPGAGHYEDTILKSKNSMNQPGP

B1: 5H3: murine monoclonal IgG1 anti-ALK antibody; VH SEQ ID NO: 13, VL SEQ ID NO: 14 (antibody)
heavy: MEWSWVFLFLLSVIAGVQSQVQLQQSGAELVRPGASVTLSCKASGYTFTDYEMHWVKQTPVHGLEWIGAIDPETGGSAYNQKFKAKAILTADRSSSTAYMELRSLTSEDSAVYYCTRTRYYGSSPAMDYWGQGTSVTVSSAKTTPPSVYPLAPGSAAQTNSMVTLGCLVKGYFPEPVTVTWNSGSLSSGVHTFPAVLQSDLYTLSSSVTVPSS
light: MSSAQFLGLLLLCFQGTRCDIQMTQTTSSLSASLGDRVTISCSASQGIGNYLNWYQQKPDGTVKLLIYYTSSLHSGVPSRFSGSGSGTDYSLTISNLEPEDIATYYCQQYSKLPYTFGGGTKLEIKRADAAPTVSIFPPSSEQLTSGGASVVCFLNNFYPKDINVKWKIDGSERQNGVLNSWTDQDSKDSTYSMSSTLTLTK
ALK [1]
  recognition of ALK in immunoblotting assays: recognize ALK in immunoblotting assays
full-length ALK receptor
  immunoprecipitation of ALK: can immunoprecipitate ALK
[2]
  recognition of circulating ALK extracellular fragment in sera: recognize the circulating ALK extracellular fragment in the sera of patients with ALK-expressing neuroblastoma
ALK [3]; cell lysates of neuroblastoma cells expressing ALK
  ALK protein recognized by western blotting in cell lysates: recognized a 220 kDa protein in the cell lysates of neuroblastoma cells
ALK [3]; conditioned media of NB cells, shed ECD domain
  ALK protein recognized by western blotting in media: an approximately 100 kDa protein in the media
ALK [4]
  ALK specificity of the clone's monoclonal antibody: high ALK specificity

B2: andecaliximab: selective MMP-9 antibody (Gilead) (antibody, chains of the INN, looked up, V domains shown)
VH: QVQLQESGPGLVKPSETLSLTCTVSGFSLLSYGVHWVRQPPGKGLEWLGVIWTGGTTNYNSALMSRFTISKDDSKNTVYLKMNSLKTEDTAIYYCARYYYGMDYWGQGTLVTVSS
VL: DIQMTQSPSSLSASVGDRVTITCKASQDVRNTVAWYQQKPGKAPKLLIYSSSYRNTGVPDRFSGSGSGTDFTLTISSLQAEDVAVYYCQQHYITPYTFGGGTKVEIK
MMP-9; combined with standard chemotherapy, gastric and gastroesophageal junction adenocarcinoma
  clinical activity: showed activity when combined with standard chemotherapy
MMP-9; patients with gastric and gastroesophageal junction adenocarcinoma
  target engagement and dose-limiting toxicity: achieved target engagement without dose-limiting toxicity
